Source: EP2784083A1 (Charité - Universitätsmedizin Berlin, dated 2014)

T1: murine Tβr1 (murine, UniProt Q64729 30-503)
T1 sequence (looked up): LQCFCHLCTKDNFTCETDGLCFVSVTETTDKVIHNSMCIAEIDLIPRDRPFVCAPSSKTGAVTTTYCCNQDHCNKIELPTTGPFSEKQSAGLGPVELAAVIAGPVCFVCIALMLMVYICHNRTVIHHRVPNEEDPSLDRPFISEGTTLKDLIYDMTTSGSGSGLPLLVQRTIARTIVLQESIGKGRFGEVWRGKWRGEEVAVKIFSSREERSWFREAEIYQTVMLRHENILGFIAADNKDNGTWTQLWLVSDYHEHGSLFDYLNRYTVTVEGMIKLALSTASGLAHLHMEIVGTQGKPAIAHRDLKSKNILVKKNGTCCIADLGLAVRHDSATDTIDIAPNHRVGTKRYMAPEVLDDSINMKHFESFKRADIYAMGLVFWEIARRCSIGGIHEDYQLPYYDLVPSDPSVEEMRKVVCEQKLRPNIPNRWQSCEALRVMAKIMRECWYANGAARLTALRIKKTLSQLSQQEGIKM

T2: murine Acvrl1 (murine, UniProt Q61288 23-502)
T2 sequence (looked up): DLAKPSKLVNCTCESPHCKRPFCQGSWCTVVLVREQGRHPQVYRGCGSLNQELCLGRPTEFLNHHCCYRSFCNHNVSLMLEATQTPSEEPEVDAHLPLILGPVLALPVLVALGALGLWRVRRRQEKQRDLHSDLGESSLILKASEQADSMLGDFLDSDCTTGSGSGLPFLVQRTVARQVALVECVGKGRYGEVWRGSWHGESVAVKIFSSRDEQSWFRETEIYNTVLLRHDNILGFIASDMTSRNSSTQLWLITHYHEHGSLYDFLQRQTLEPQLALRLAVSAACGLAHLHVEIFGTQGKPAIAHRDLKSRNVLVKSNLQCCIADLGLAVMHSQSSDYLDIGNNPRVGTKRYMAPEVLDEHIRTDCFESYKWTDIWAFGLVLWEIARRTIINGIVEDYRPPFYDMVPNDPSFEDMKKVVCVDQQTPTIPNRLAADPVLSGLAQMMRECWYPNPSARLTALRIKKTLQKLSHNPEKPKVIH

T3: murine Acvr1 (murine, UniProt P37172 21-509)
T3 sequence (looked up): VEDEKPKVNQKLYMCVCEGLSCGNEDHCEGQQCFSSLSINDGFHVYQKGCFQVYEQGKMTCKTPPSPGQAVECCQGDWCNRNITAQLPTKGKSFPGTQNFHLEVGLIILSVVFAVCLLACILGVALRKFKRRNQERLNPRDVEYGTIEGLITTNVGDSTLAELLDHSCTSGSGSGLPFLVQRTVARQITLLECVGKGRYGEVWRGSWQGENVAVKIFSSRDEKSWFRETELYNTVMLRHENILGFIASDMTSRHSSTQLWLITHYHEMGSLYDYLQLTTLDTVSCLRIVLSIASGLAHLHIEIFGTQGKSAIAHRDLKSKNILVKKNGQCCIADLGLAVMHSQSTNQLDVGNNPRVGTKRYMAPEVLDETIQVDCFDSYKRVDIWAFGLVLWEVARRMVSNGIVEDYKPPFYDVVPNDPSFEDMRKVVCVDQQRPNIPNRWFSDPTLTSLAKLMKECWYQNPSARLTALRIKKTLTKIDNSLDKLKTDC

T4: murine Acvr1 c (murine, UniProt Q8K348 26-493)
T4 sequence (looked up): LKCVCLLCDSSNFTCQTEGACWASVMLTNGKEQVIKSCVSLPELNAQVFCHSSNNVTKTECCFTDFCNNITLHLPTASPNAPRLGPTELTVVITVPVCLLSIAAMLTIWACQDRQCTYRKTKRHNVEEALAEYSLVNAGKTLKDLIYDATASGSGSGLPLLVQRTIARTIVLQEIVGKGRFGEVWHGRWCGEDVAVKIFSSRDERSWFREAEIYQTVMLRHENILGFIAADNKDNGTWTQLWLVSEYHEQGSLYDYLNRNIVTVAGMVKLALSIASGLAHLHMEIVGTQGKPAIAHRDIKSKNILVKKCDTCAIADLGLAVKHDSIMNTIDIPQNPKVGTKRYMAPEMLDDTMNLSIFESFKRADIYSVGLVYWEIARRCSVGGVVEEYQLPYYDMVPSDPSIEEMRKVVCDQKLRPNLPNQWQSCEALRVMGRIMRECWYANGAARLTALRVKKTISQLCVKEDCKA

T5: murine Actr1 b (murine, UniProt Q61271 24-505)
T5 sequence (looked up): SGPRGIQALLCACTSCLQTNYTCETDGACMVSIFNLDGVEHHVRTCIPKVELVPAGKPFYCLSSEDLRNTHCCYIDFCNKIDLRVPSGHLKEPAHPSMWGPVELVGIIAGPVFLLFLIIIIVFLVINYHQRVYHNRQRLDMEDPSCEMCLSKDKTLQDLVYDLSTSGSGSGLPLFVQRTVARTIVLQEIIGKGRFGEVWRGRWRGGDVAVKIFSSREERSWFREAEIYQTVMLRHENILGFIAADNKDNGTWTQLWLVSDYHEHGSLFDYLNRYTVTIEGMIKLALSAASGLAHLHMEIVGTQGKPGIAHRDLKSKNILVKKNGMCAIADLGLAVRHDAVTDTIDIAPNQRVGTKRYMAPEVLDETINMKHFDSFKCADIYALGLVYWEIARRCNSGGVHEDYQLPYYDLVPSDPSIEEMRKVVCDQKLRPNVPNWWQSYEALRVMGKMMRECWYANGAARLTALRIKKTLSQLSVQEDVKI

T6: murine Bmpr2 (murine, UniProt O35607 27-1038)
T6 sequence (looked up): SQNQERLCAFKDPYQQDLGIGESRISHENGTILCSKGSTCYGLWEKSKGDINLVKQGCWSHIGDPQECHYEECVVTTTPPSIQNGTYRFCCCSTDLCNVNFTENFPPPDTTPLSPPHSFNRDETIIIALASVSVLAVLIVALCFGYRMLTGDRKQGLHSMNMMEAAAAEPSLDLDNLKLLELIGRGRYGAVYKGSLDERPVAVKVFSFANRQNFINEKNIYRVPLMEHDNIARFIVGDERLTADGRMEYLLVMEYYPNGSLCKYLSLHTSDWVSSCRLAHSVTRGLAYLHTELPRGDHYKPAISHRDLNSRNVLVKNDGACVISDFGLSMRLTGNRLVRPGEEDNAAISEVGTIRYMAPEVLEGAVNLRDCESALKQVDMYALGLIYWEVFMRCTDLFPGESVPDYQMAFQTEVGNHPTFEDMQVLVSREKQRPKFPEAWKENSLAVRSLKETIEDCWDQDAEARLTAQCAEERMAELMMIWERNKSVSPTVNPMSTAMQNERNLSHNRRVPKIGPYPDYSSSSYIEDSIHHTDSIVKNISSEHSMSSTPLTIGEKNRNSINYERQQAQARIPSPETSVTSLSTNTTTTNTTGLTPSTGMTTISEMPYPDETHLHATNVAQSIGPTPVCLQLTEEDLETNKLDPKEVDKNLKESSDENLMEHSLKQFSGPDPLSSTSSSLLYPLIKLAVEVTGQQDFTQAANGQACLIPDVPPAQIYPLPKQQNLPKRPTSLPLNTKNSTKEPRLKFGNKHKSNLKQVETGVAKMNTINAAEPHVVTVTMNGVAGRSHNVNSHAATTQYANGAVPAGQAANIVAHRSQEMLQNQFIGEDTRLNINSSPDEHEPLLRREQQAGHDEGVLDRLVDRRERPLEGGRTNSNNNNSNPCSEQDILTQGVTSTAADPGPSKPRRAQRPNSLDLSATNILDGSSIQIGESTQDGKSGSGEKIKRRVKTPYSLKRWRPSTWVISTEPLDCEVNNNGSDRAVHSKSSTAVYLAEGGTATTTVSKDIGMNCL


How the values were obtained:
Assay in all cases: cell-based or functional assay
[1] = target: wildtype human BMP2 (human) (UniProt P12643)
[2] = target: hBMP2(N341 V-N384W) (human) (UniProt P12643)
murine Tβr1 = target: T1, murine Tβr1
murine Acvrl1 = target: T2, murine Acvrl1
murine Acvr1 = target: T3, murine Acvr1
murine Acvr1 c = target: T4, murine Acvr1 c
murine Bmpr1b = murine Bmpr1b (murine, UniProt P36898 14-502)
murine Actr1 b = target: T5, murine Actr1 b
murine Acvr2b = murine Acvr2b (murine, UniProt P27040 19-536)
murine Bmpr2 = target: T6, murine Bmpr2
murine Acvr2a = murine Acvr2a (murine, UniProt P27038 20-513)
murine Bmpr1a = murine Bmpr1a (murine, UniProt P36895 24-532)
Chain of murine Bmpr1a (P36895 24-532): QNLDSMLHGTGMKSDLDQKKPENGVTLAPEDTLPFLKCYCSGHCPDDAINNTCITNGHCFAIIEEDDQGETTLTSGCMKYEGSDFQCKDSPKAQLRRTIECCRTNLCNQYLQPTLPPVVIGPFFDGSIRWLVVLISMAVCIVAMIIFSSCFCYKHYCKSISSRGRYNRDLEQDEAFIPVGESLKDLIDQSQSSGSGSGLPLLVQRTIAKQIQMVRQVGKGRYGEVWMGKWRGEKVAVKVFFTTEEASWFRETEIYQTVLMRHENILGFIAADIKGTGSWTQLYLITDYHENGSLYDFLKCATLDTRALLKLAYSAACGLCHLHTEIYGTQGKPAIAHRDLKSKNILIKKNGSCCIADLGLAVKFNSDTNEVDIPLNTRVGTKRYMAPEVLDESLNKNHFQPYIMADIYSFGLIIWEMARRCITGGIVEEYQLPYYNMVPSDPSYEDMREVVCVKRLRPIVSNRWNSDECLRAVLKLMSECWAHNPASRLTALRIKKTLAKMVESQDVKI

Chain of murine Bmpr1b (P36898 14-502): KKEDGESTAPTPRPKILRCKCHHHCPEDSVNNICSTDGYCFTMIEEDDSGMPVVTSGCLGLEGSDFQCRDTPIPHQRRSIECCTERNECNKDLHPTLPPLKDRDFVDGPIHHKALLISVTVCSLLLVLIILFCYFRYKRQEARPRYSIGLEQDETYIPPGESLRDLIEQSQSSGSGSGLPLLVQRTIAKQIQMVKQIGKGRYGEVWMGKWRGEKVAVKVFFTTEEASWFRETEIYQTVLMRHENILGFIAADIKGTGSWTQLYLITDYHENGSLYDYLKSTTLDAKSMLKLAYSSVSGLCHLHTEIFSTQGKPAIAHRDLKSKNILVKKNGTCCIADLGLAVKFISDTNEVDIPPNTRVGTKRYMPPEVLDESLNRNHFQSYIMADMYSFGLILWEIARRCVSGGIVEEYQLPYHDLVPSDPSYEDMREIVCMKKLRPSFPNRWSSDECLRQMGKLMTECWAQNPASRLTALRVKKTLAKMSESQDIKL
Chain of murine Acvr2b (P27040 19-536): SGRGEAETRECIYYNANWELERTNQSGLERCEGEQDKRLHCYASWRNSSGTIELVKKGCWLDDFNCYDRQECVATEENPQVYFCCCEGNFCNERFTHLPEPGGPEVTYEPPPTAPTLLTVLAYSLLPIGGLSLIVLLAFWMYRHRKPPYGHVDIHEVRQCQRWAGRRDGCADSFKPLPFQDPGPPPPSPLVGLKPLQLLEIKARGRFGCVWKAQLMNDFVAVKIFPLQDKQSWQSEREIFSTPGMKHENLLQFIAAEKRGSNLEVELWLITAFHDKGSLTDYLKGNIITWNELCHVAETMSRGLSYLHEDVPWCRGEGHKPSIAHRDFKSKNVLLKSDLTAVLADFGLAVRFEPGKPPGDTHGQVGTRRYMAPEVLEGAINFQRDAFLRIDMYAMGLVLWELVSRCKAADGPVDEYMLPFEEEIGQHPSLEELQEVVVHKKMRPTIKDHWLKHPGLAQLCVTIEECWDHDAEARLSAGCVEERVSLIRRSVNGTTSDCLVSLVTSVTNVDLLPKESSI
Chain of murine Acvr2a (P27038 20-513): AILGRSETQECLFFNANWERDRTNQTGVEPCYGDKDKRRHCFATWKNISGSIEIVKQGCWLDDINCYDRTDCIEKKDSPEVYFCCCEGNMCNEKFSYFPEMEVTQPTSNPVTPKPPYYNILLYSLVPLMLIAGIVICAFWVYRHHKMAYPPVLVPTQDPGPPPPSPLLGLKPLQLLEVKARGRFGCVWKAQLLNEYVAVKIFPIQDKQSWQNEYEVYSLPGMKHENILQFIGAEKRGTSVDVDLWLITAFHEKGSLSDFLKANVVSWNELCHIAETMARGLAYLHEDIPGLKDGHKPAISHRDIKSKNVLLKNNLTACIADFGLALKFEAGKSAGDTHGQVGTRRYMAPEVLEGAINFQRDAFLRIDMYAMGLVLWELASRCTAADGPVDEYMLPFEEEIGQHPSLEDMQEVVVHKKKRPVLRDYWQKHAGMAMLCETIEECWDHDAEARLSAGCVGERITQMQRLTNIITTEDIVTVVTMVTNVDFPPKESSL

Row | rel. luciferase activity (SBE reporter, NIH3T3 cells) at 5x surplus of co-transfected NOG DNA (rel. luciferase activity) [1] | rel. luciferase activity (SBE reporter, NIH3T3 cells) at 50x surplus of co-transfected NOG DNA (rel. luciferase activity) [1] | NOG DNA surplus that blocks SBE reporter activation to control levels, NIH3T3 cells (fold surplus of transfected NOG-DNA) [2] | rel. luciferase activity (SBE reporter, NIH3T3 cells) at 5x surplus of co-transfected NOG DNA (rel. luciferase activity) [2] | rel. luciferase activity (SBE reporter, NIH3T3 cells) at 50x surplus of co-transfected NOG DNA (rel. luciferase activity) [2] | chondrogenic potential in chicken micromass culture (Alcian blue), NOG co-expressed ([2]; scale: % of the wild-type activity in the absence of its antagonist) | rel. luciferase activity (SBE reporter, COS-1 cells) (murine Tβr1) | rel. luciferase activity (SBE reporter, COS-1 cells) (murine Acvrl1) | rel. luciferase activity (SBE reporter, COS-1 cells) (murine Acvr1) | rel. luciferase activity (SBE reporter, COS-1 cells) (murine Acvr1 c) | rel. luciferase activity (SBE reporter, COS-1 cells) (murine Bmpr1b) | rel. luciferase activity (SBE reporter, COS-1 cells) (murine Actr1 b) | rel. luciferase activity (SBE reporter, COS-1 cells) (murine Acvr2b) | rel. luciferase activity (SBE reporter, COS-1 cells) (murine Bmpr2) | rel. luciferase activity (SBE reporter, COS-1 cells) (murine Acvr2a) | rel. luciferase activity (SBE reporter, COS-1 cells) (murine Bmpr1a) | Molecule
1 | 1.53 | 1.51 | 500 | 9.31 | 7.11 | > 100 | – | – | – | – | – | – | – | – | – | – | human NOG (Noggin) (from UniProt Q13253 28-232)
2 | – | – | – | – | – | – | 2.44 rel. luciferase activity | 6.41 rel. luciferase activity | 1.63 rel. luciferase activity | 2.06 rel. luciferase activity | 37.5 rel. luciferase activity | 2.81 rel. luciferase activity | 171 rel. luciferase activity | 268 rel. luciferase activity | 57.4 rel. luciferase activity | – | wildtype human BMP2 (ligand) QAKHKQRKRLKSSCKRHPLYVDFSDVGWNDWIVAPPGYHAFYCHGECPFPLADHLNSTNHAIVQTLVNSVNSKIPKACCVPTELSAISMLYLDENEKVVLKNYQDMVVEGCGCR
3 | – | – | – | – | – | – | 2.52 rel. luciferase activity | 7.57 rel. luciferase activity | 1.23 rel. luciferase activity | 2.75 rel. luciferase activity | 28.8 rel. luciferase activity | 3.4 rel. luciferase activity | 156 rel. luciferase activity | 262 rel. luciferase activity | 46.7 rel. luciferase activity | 24.6 rel. luciferase activity | hBMP2(N341 V-N384W) (ligand) QAKHKQRKRLKSSCKRHPLYVDFSDVGWNDWIVAPPGYHAFYCHGECPFPLADHLNSTVHAIVQTLVNSVNSKIPKACCVPTELSAISMLYLDENEKVVLKWYQDMVVEGCGCR
